# Experimental data as given in US20230324408A1 (JUNO THERAPEUTICS, published 2023).
# How the values were obtained:
# [1] = biological target: exemplary anti-ROR1 (ROR 1-1) chimeric antigen receptor; assay: cell-based or functional assay
# [2] = biological target: exemplary anti-ROR1 (ROR 1-1) chimeric antigen receptor; assay: cell-based or functional assay; remark: listed apart in the source
# exemplary anti-ROR1 (ROR 1-1) chimeric antigen receptor, sequence (chain, as listed by the source mutant limits assumed): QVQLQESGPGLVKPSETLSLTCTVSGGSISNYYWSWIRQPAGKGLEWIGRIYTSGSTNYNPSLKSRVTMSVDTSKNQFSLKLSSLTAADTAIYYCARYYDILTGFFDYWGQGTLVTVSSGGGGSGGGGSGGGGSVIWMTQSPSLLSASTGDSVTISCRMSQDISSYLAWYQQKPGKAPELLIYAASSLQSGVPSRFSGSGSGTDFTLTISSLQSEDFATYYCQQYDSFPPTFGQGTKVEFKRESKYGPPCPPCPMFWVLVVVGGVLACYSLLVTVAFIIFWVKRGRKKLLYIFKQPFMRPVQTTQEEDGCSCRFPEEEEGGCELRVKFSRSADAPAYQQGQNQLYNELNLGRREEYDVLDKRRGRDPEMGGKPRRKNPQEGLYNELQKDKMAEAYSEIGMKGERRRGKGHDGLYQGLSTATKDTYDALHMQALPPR
"% Nur77-TdT of EGFRt+ cells, soluble antibody 0.3 ug/mL [1] [%]","% Nur77-TdT of EGFRt+ cells, soluble antibody 0.6 ug/mL [1] [%]","% Nur77-TdT of EGFRt+ cells, soluble antibody 10 ug/mL [1] [%]","% Nur77-TdT of EGFRt+ cells, plate coated with 5 ug/ml antibody [2] [%]",Binder
11.4,11.8,11.7,89.8,"anti-idiotype antibody clone F101 (antibody, mouse IgG1, kappa, V domains shown) VH: QVQFQQSGAELARPGASVKLSCKASGYTFTSYWMQWVKQRPGQGLEWIGTIYPGDGDARYSQKFKGKATLTADKSSSTAYMQLSSLASEDSAVYYCTRRRGYDAMDYWGQGTSVTVSS VL: NIVLTQSPASLAVSLGQRATISCRASESVDSYGSSFMHWYQEKPGQPPKLLIFLASNLESGVPARFSGSGSRTDFTLTIDPVEADDAATYYCQQNNEDPNMYTFGGGTKLEIRR"
38.3,41.3,43.2,83.9,"anti-idiotype antibody clone F112 (antibody, mouse IgG1, V domains shown) VH: QVQLQQPGAELVRPGASVKLSCKASGYPFTSYWINWVKQRPGQGLEWIGMIDPSDSETHYNQMFKDKATLTVDRSSSTAYMHLSSLTSEDSAVYYCARGGIRDYWGQGTTLTVSS VL: QAVVTQESALTTSPGETVTLTCRSSTGAVTTSNYANWVQEKSDHLFTGLIGGTNNRAPGVPARFSGSLIGDKAALTITGAQTEDEAIYFCALWYSNHWVFGGGTKLTVLG"
15.6,19.9,28.3,85,"anti-idiotype antibody clone F107 (antibody, mouse IgG1, kappa, V domains shown) VH: QVTLKESGPGILKPSQTLSLTCSFSGFSLNTFGMGVGWIRQPSGKGLEWLAHIWWDDDKHYHPSLKSQLTISKDTSRNQVFLKITSVDTTDTATYYCVRRYRYDVFDYWGPGTTLTVSS VL: DVMMTQTPLSLPVSLGDQASISCRSSQSLVHSNGNTYLHWYLQKPGQSPKLLIYKVSNRFSGVPDRFSGSGSGTDFTLKISRVEAEDLGVYFCSQSTHGPWTFGGGTKLEIKR"
